Measurements from IntAct's records for PubMed 29039417.

B1: Isoform 2 of Bardet-Biedl syndrome 7 protein (Homo sapiens), Q8IWZ6-2 (parent)
chain: MDLILNRMDYLQVGVTSQKTMKLIPASRHRATQKVVIGDHDGVVMCFGMKKGEAAAVFKTLPGPKIARLELGGVINTPQEKIFIAAASEIRGFTKRGKQFLSFETNLTESIKAMHISGSDLFLSASYIYNHYCDCKDQHYYLSGDKINDVICLPVERLSRITPVLACQDRVLRVLQGSDVMYAVEVPGPPTVLALHNGNGGDSGEDLLFGTSDGKLALIQITTSKPVRKWEIQNEKKRGGILCIDSFDIVGDGVKDLLVGRDDGMVEVYSFDNANEPVLRFDQMLSESVTSIQGGCVGKDSYDEIVVSTYSGWVTGLTTEPIHKESGPGEELKINQEMQNKISSLRNELEHLQYKVLQERENYQQSSQSSKAKSAVPSFGINDKFTLNKDDASYSLILEVQTAIDNVLIQSDVPIDLLDVDKNSAVVSFSSCDSESNDNFLLATYRCQADTTRLELKIRSIEGQYGTLQAYVTPRIQPKTCQVRQYHIKPLSLHQRTHFIDHDRPMNTLTLTGQFSFAEVHSWVVFCLPEVPEKPPAGECVTFYFQNTFLDTQLESTYRKGEGVFKSDNISTISILKDVLSKEATKRKINLNISYEINEVSVKHTLKLIHPKLEYQLLLAKKVQLIDALKELQIHEGNTNFLIPEYHCILEEADHLQEEYKKQPAHLERLYG
partner: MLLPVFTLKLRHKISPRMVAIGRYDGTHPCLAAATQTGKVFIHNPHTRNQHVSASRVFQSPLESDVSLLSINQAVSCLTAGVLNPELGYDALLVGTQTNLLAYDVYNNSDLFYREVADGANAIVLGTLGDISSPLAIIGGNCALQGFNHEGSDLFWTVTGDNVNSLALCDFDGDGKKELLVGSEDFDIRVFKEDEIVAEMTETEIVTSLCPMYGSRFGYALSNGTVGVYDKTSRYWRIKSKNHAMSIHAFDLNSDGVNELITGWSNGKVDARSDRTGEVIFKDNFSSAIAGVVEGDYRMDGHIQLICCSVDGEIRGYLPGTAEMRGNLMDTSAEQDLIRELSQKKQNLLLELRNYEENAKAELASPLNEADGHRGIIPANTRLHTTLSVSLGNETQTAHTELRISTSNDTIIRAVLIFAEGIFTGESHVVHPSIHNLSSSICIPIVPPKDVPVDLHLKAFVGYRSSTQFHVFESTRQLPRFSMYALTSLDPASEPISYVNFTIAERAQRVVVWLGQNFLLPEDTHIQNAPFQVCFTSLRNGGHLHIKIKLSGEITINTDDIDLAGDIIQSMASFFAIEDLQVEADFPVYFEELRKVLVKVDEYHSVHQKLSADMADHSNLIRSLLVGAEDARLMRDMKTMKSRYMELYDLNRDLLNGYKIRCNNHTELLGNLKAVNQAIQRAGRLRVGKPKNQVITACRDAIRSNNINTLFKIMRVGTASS

Variants of: B1
Conditions: with bbs2_human BBS2, Q9BXC9

Effect of a mutation on the interaction, with no effect:
N638K
T639A
T639E
T639K
N640A
N640E
N640K
F641A
F641E
F641K
L642A
L642E
L642K
I643A
I643E
I643K
P644A
P644E
P644K
E645A
E645K
Y646A
Y646E
Y646K
H647A
H647E
H647K
C648A
C648E
C648K
I649A
I649E
I649K
L650A
L650E
L650K
E651A
E651K
E652A
E652K
A653E
A653K
D654A
D654E
D654K
H655A
H655E
H655K
L656A
L656E
L656K
Q657A
Q657E
Q657K
E658A
E658K
E659A
E659K
Y660A
Y660E
Y660K
K661A
K661E
K662A
K662E
Q663A
Q663E
Q663K
P664A
P664E
P664K
A665E
A665K
H666A
H666E
H666K
L667A
L667E
L667K
E668A
E668K
R669A
R669E
R669K
L670A
L670E
L670K
Y671A
Y671E
Y671K
G672A
G672E
G672K
